Laboratory results published in the supplement of paper PMC7877785.
± gives the uncertainty stated by the source.

Assay: self-splicing fitness, log relative to wild type (ln ratio); higher = more splicing; Tetrahymena group I intron in knt gene, E. coli kanamycin selection, DiMSum; sequences stand for … in CUCUCU…GGAGGGAAAAGUUAUCAGGCAUGCACCUGGUAGCUAGUCUUUAAACCAAUAGAUUGCAUCGGUUUAAAAGGCAAGACCGUCAAAUUGCGGGAAAGGGGUCAACAGCCGUUCAGUACCAAGUCUCAGGGGAAACUUUGAGAUGGCCUUGCAAAGGGUAUGGUAAUAAGCUGACGGACAUGGUCCUAACCACGCAGCCAAGUCCUAAGUCAACAGAUCUUCUGUUGAUAUGGAUGCAGUUCACAGACUAAAUGUCGGUCGGGGAAGAUGUAUUCUUCUCAUAAGAUAUAGUCGGACCUCUCCUUAAUGGGAGCUAGCGGAUGAAGUGAUGCAACACUGGAGCCGCUGGGAACUAAUUUGUAUGCGAAAGUAUAUUGAUUAGUUUUGGAGUACUCGUGGUCG
How it was run: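 DiMSum derived fitness as the error-weighted combination of fold changes across replicates, kanamycin versus no kanamycin, normalised to wild type. E. coli BL21(DE3) held the library, which randomised all eight P1ex-region intron nucleotides within the knt kanamycin-resistance gene on pET-22b(+). Six replicate transformations grew overnight at 37°C or 30°C on LB agar with or without 25 μg/mL kanamycin, also containing 100 μg/mL carbenicillin, 50 μM IPTG and 0.2% rhamnose, and pooled colonies were amplicon-sequenced on an Illumina HiSeq 2500.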

GCUGAGCAAUAUUACGUUUA
self-splicing fitness (ln) (30 °C): -2.35 ± 0.24
self-splicing fitness (ln) (37 °C): -1.87 ± 0.25

CACUAGCAAUAUUACGGUGG
self-splicing fitness (ln) (30 °C): -2.3 ± 0.067
self-splicing fitness (ln) (37 °C): -0.616 ± 0.075

ACGAAGCAAUAUUACGCUCA
self-splicing fitness (ln) (30 °C): -0.808 ± 0.11
self-splicing fitness (ln) (37 °C): 0.223 ± 0.17

UCGAAGCAAUAUUACGUCUU
self-splicing fitness (ln) (30 °C): -3.87 ± 0.14
self-splicing fitness (ln) (37 °C): -2.29 ± 0.15

AACUAGCAAUAUUACGUACU
self-splicing fitness (ln) (30 °C): -0.0487 ± 0.053
self-splicing fitness (ln) (37 °C): 0.151 ± 0.073

UAGAAGCAAUAUUACGCUCA
self-splicing fitness (ln) (30 °C): 0.205 ± 0.16
self-splicing fitness (ln) (37 °C): -0.337 ± 0.18

UUUGAGCAAUAUUACGGAUC
self-splicing fitness (ln) (30 °C): -3.24 ± 0.37
self-splicing fitness (ln) (37 °C): -2.24 ± 0.44

UUGGAGCAAUAUUACGUCAG
self-splicing fitness (ln) (30 °C): -2.63 ± 0.26
self-splicing fitness (ln) (37 °C): -0.954 ± 0.2

UAUAAGCAAUAUUACGCUGG
self-splicing fitness (ln) (30 °C): -1.44 ± 0.13
self-splicing fitness (ln) (37 °C): -0.93 ± 0.18

UGGUAGCAAUAUUACGAUAU
self-splicing fitness (ln) (30 °C): -2.62 ± 0.16
self-splicing fitness (ln) (37 °C): -1.62 ± 0.16

UCUUAGCAAUAUUACGCCGU
self-splicing fitness (ln) (30 °C): -2.05 ± 0.16
self-splicing fitness (ln) (37 °C): -0.32 ± 0.17

CGUUAGCAAUAUUACGGACU
self-splicing fitness (ln) (30 °C): -0.292 ± 0.08
self-splicing fitness (ln) (37 °C): 0.16 ± 0.11

GCCAAGCAAUAUUACGCGCU
self-splicing fitness (ln) (30 °C): -1.33 ± 0.063
self-splicing fitness (ln) (37 °C): -0.352 ± 0.082

UCAUAGCAAUAUUACGAAAA
self-splicing fitness (ln) (30 °C): -2.62 ± 0.48

GGCGAGCAAUAUUACGGGCU
self-splicing fitness (ln) (30 °C): -2.07 ± 0.36
self-splicing fitness (ln) (37 °C): -1.23 ± 0.28

GUUGAGCAAUAUUACGGAUG
self-splicing fitness (ln) (30 °C): -3.56 ± 0.42
self-splicing fitness (ln) (37 °C): -1.75 ± 0.36

CUGGAGCAAUAUUACGGGUC
self-splicing fitness (ln) (30 °C): -1.97 ± 0.16
self-splicing fitness (ln) (37 °C): -2.26 ± 0.34

AAUCAGCAAUAUUACGCUAG
self-splicing fitness (ln) (30 °C): -0.729 ± 0.066
self-splicing fitness (ln) (37 °C): 0.121 ± 0.09

UGGCAGCAAUAUUACGUAGC
self-splicing fitness (ln) (30 °C): -4.18 ± 0.29
self-splicing fitness (ln) (37 °C): -2.28 ± 0.19

UGAAAGCAAUAUUACGAACC
self-splicing fitness (ln) (30 °C): -1.55 ± 0.17
self-splicing fitness (ln) (37 °C): -1.16 ± 0.22

ACGAAGCAAUAUUACGUUGC
self-splicing fitness (ln) (30 °C): -3.45 ± 0.17
self-splicing fitness (ln) (37 °C): -1.8 ± 0.16

UUUGAGCAAUAUUACGAACC
self-splicing fitness (ln) (30 °C): -2.5 ± 0.35

GCCAAGCAAUAUUACGUAAC
self-splicing fitness (ln) (30 °C): -1.35 ± 0.087
self-splicing fitness (ln) (37 °C): -0.157 ± 0.11

GAUGAGCAAUAUUACGUCUC
self-splicing fitness (ln) (30 °C): -2.96 ± 0.23
self-splicing fitness (ln) (37 °C): -1.5 ± 0.41

AGCGAGCAAUAUUACGCCUG
self-splicing fitness (ln) (30 °C): -3.09 ± 0.3
self-splicing fitness (ln) (37 °C): -2.24 ± 0.36

GUGAAGCAAUAUUACGCUAC
self-splicing fitness (ln) (30 °C): -3.39 ± 0.27
self-splicing fitness (ln) (37 °C): -1.95 ± 0.31

CGUUAGCAAUAUUACGCCCA
self-splicing fitness (ln) (30 °C): -1.43 ± 0.16
self-splicing fitness (ln) (37 °C): 0.14 ± 0.18

CGGAAGCAAUAUUACGUCAC
self-splicing fitness (ln) (37 °C): -1.76 ± 0.4

CAGAAGCAAUAUUACGUUUU
self-splicing fitness (ln) (30 °C): -3.33 ± 0.14
self-splicing fitness (ln) (37 °C): -3.58 ± 0.19

CAAUAGCAAUAUUACGCUUA
self-splicing fitness (ln) (30 °C): -2.06 ± 0.1
self-splicing fitness (ln) (37 °C): -1.74 ± 0.11

GGUAAGCAAUAUUACGAACC
self-splicing fitness (ln) (37 °C): -1.64 ± 0.42

UCAGAGCAAUAUUACGGGUA
self-splicing fitness (ln) (30 °C): -3.47 ± 0.27
self-splicing fitness (ln) (37 °C): -2.64 ± 0.31

ACCUAGCAAUAUUACGGUGG
self-splicing fitness (ln) (30 °C): -4 ± 0.16
self-splicing fitness (ln) (37 °C): -3.02 ± 0.15

GGCGAGCAAUAUUACGCCUC
self-splicing fitness (ln) (30 °C): -1.67 ± 0.33

CGGGAGCAAUAUUACGCAUG
self-splicing fitness (ln) (30 °C): -2.83 ± 0.29
self-splicing fitness (ln) (37 °C): -0.773 ± 0.21

UACUAGCAAUAUUACGUGAG
self-splicing fitness (ln) (30 °C): -3.38 ± 0.13
self-splicing fitness (ln) (37 °C): -2.56 ± 0.23

AAGGAGCAAUAUUACGACUU
self-splicing fitness (ln) (30 °C): -1.12 ± 0.086
self-splicing fitness (ln) (37 °C): -1.26 ± 0.1

CGGCAGCAAUAUUACGGGCC
self-splicing fitness (ln) (30 °C): -1.55 ± 0.2
self-splicing fitness (ln) (37 °C): -1.98 ± 0.32

CGGGAGCAAUAUUACGUGUG
self-splicing fitness (ln) (30 °C): -2.47 ± 0.16
self-splicing fitness (ln) (37 °C): -0.316 ± 0.11

UCAGAGCAAUAUUACGGCAC
self-splicing fitness (ln) (37 °C): -2.09 ± 0.33

GCAGAGCAAUAUUACGAGAC
self-splicing fitness (ln) (30 °C): -3.42 ± 0.21
self-splicing fitness (ln) (37 °C): -2.03 ± 0.12

GCACAGCAAUAUUACGCUUA
self-splicing fitness (ln) (30 °C): -0.908 ± 0.065
self-splicing fitness (ln) (37 °C): -0.871 ± 0.062

GUAGAGCAAUAUUACGCAAA
self-splicing fitness (ln) (30 °C): -2.21 ± 0.16
self-splicing fitness (ln) (37 °C): -1.59 ± 0.17

UCCUAGCAAUAUUACGCACG
self-splicing fitness (ln) (30 °C): -3.34 ± 0.37
self-splicing fitness (ln) (37 °C): -1.87 ± 0.47

AAUCAGCAAUAUUACGUGAA
self-splicing fitness (ln) (30 °C): -0.152 ± 0.065
self-splicing fitness (ln) (37 °C): 0.257 ± 0.094

ACGGAGCAAUAUUACGUGCG
self-splicing fitness (ln) (30 °C): -2.63 ± 0.17
self-splicing fitness (ln) (37 °C): -1.79 ± 0.18

CUUAAGCAAUAUUACGCAAA
self-splicing fitness (ln) (30 °C): -2.76 ± 0.4

GCGGAGCAAUAUUACGGAUA
self-splicing fitness (ln) (30 °C): -2.53 ± 0.33
self-splicing fitness (ln) (37 °C): -1.26 ± 0.25

ACAUAGCAAUAUUACGGGGU
self-splicing fitness (ln) (30 °C): -3.67 ± 0.17
self-splicing fitness (ln) (37 °C): -1.81 ± 0.14

UGGGAGCAAUAUUACGCAGA
self-splicing fitness (ln) (30 °C): -1.08 ± 0.48
self-splicing fitness (ln) (37 °C): -3 ± 0.35
